{"source": "paper PMC9721421", "about": "“DMSO-tolerant ornithine decarboxylase (ODC) tandem assay optimised for high-throughput screening” (Journal of Enzyme Inhibition and Medicinal Chemistry, 2022)", "proteins": {"B1": {"name": "C-terminal Twin-Strep-tagged recombinant human ornithine decarboxylase (ODC) (enzyme, UniProt P11926 1-461, looked up)", "chain": "MNNFGNEEFDCHFLDEGFTAKDILDQKINEVSSSDDKDAFYVADLGDILKKHLRWLKALPRVTPFYAVKCNDSKAIVKTLAATGTGFDCASKTEIQLVQSLGVPPERIIYANPCKQVSQIKYAANNGVQMMTFDSEVELMKVARAHPKAKLVLRIATDDSKAVCRLSVKFGATLRTSRLLLERAKELNIDVVGVSFHVGSGCTDPETFVQAISDARCVFDMGAEVGFSMYLLDIGGGFPGSEDVKLKFEEITGVINPALDKYFPSDSGVRIIAEPGRYYVASAFTLAVNIIAKKIVLKEQTGSDDEDESSEQTFMYYVNDGVYGSFNCILYDHAHVKPLLQKRPKPDEKYYSSSIWGPTCDGLDRIVERCDLPEMHVGDWMLFENMGAYTVAAASTFNGFQRPTIYYVMSGPAWQLMQQFQNPDFPPEVEEQDASTLPVSCAWESGMKRHRAACASASINV", "notes": "Cloning sites may add a few linker residues between ODC and the 3C site; also called human ODC; ODC1; source: Expi293F cells, transiently transfected, purified (Strep-Tactin chromatography, size-exclusion chromatography); not shown: Avi tag (preceded by an HRV 3C protease site), C-terminal, kept; Twin-Strep, C-terminal, kept"}}, "target": "the molecule itself", "assay": "SEC; Superose 6 Increase 10/300 GL, 4 °C, 0.5 mL/min, running buffer 50 mM potassium pyrophosphate, 500 mM NaCl, 5% glycerol, 0.1% Tween 20, pH 7.5; elution compared with molecular weight standards; fractions checked by ODC tandem assay, Coomassie staining and western blot", "data": [{"protein": "B1", "values": [{"measurement": "stoichiometry N", "result": 2}]}]}
